Data: paper PMC4517176

Assays:
[1] = molecular target: nPTEN-GFP (expressed in HEK293) (human) (UniProt P60484); assay: co-IP; PTEN-GFP constructs from HEK293 lysates held on anti-GFP beads (two hours), then 400 ul whole-cell lysate of HEK293 expressing HA-NEDD4-1 added for three hours; three washes; blots with anti-GFP and anti-HA; band intensity quantified (n = 3)
[2] = molecular target: ePTEN-GFP (expressed in HEK293) (human) (UniProt P60484); assay: as above

increase of co-precipitated NEDD4-1 against GFP alone and wild-type PTEN-GFP [1]: 2.5
increase of co-precipitated NEDD4-1 against GFP alone and wild-type PTEN-GFP [2]: 2.5
Substance: HA-NEDD4-1 (from UniProt P46934 1-1319) (enzyme)
